Measurements: PMC9418295, “Characterization of proteins from the 3N5M family reveals an operationally stable amine transaminase” (Applied Microbiology and Biotechnology, 2022)

What was measured:
Assay in all cases: native gel or EMSA + SEC; native PAGE without SDS (7.5% separating gel, running buffer 0.05 M Tris, 0.038 M glycine, pH 8.3) against the standards TA-3HMU and TA-3FCR (dimers), catalase and TA-3N5M (tetramers); SEC on HiPrep 16/60 Sephacryl S-100 HR in 50 mM sodium phosphate pH 8.0; subunit size by SDS-PAGE
[1] = biological target: TA-5, putative transaminase from Halomonas elongata (Halomonas elongata)
[2] = biological target: TA-10, amine transaminase from Burkholderia multivorans (Burkholderia multivorans)
[3] = biological target: TA-9, putative transaminase from Burkholderia cepacia (Burkholderia cepacia)
[4] = biological target: the molecule itself

How did the stoichiometry N [1] turn out when “TA-5, putative transaminase from Halomonas elongata (enzyme)” was run?
Its stoichiometry N is 4.

With “TA-10, amine transaminase from Burkholderia multivorans (enzyme)” as the molecule, how does the stoichiometry N [2] read?
Its stoichiometry N is 4.

With “TA-9, putative transaminase from Burkholderia cepacia (enzyme)” as the molecule, how does the stoichiometry N [3] read?
The stoichiometry N was 4.

B1: TA-1, taurine transaminase from Bilophila wadsworthia (enzyme, UniProt Q9APM5 1-456, looked up)
chain: MTYDKAELVALDKKYVWHHLTQHKNFEPAIYVKGEGMRITDIDGKTYLDAVSGGVWTVNVGYGRKEIVDAVAKQMMEMCYFANGIGNVPTIKFSEKLISKMPGMSRVYLSNSGSEANEKAFKIVRQIGQLKHGGKKTGILYRARDYHGTTIGTLSACGQFERKVQYGPFAPGFYEFPDCDVYRSKFGDCADLGVKMAKQLEEVILTVGPDELGAVIVEPMTAGGGILVPPAGYYETIREICDKYELLLIIDEVVCGLGRTGKWFGYQHFNVQPDIVTMAKGVASGYAPISCTVTTEKVFQDFVNDPADTDAYFRDISTFGGCTSGPAAALANIEIIERENLLENCTKMGDRLLEGLKGLMAKHPIIGDVRGKGLFAGIEIVKDRATKEPIAEAVANAMVGAAKQAGVLIGKTSRSFREFNNTLTLCPALIATEADIDEIVAGIDKAFTTVEQKFGL
notes: TA-1, taurine-pyruvate transaminase, Bilophila wadsworthia; codon-optimized gene subcloned with NdeI and BamHI into pET22b or pET28b; Purified and stored with PLP as cofactor; also called taurine-pyruvate transaminase; source: E. coli BL21, purified (Ni-NTA, desalting)
B1 was tested. Which “stoichiometry N” value [4] did it give?
Its value is 4.
